Laboratory results: the supplement of paper PMC10567573

B1: KLHL13 (parent)
chain: TGEFLKLPFERLAFVLSSNSLKHC
B2: ALDH8A1 (parent)
chain: FTGSQPTAERITQLSAPHCKKLSL

Variants of: B1
Assay: protein stability index of a GFP-peptide fusion (GPS, HEK-293T) (PSI 1-6); higher = more stable
Settings: c terminus: a fixed tail appended
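Further: lentivirally expressed fusions sorted by FACS into six bins by GFP to DsRed ratio, PSI derived from sequencing read proportions per bin multiplied by bin number.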

Compared with L7P, N19K is lower in protein stability index: 2.87 for the first, 2.22 for the second.

Going from N19E to N19D, the protein stability index falls from 2.44 to 1.56.

First: N19Y
Second: N19R
The protein stability index of the first is higher: 3.05 for the first, 2.56 for the second.

Compared with N19L, N19T is lower in protein stability index: 3.66 for the first, 2.98 for the second.

Going from N19M to N19C, the protein stability index rises from 3.78 to 4.21.

Going from N19V to N19G, the protein stability index rises from 2.24 to 3.21.

First: V15D
Second: V15G
The protein stability index of the first is lower: 1.82 for the first, 3.31 for the second.

Compared with V15K, V15Y is lower in protein stability index: 1.81 for the first, 1.06 for the second.

Going from V15A to V15P, the protein stability index rises from 1.84 to 2.53.

Compared with V15N, V15I is higher in protein stability index: 1.95 for the first, 2 for the second.

First: V15R
Second: V15E
The protein stability index of the first is lower: 1.53 for the first, 1.78 for the second.

Compared with V15C, V15M is lower in protein stability index: 2.21 for the first, 1.96 for the second.

Compared with V15S, V15Q is lower in protein stability index: 2.32 for the first, 2.31 for the second.

Compared with L12F, L12M is lower in protein stability index: 3.73 for the first, 3.48 for the second.

Going from L12D to L12Y, the protein stability index falls from 2.38 to 1.76.

Compared with L12Q, L12A is lower in protein stability index: 2.11 for the first, 1.99 for the second.

Compared with L12H, L12K is lower in protein stability index: 2.27 for the first, 2.12 for the second.

Going from L12V to L12P, the protein stability index rises from 1.44 to 1.77.

Compared with P8D, P8Y is higher in protein stability index: 1.58 for the first, 4.25 for the second.

Compared with P8C, P8Q is lower in protein stability index: 1.84 for the first, 1.41 for the second.

Going from P8M to P8T, the protein stability index falls from 3.97 to 3.92.

First: S17A
Second: S17P
The protein stability index of the first is higher: 3.79 for the first, 1.7 for the second.

Compared with S17K, S17D is higher in protein stability index: 1.05 for the first, 1.06 for the second.

Going from S17L to S17I, the protein stability index falls from 2.06 to 1.71.

Compared with S17R, S17N is lower in protein stability index: 2.82 for the first, 2.33 for the second.

Going from S17E to S17Y, the protein stability index rises from 1.86 to 2.46.

Compared with S17C, S17M is lower in protein stability index: 5.02 for the first, 2.2 for the second.

First: H23T
Second: H23W
The protein stability index of the first is higher: 2.17 for the first, 1.88 for the second.

Going from H23K to H23Y, the protein stability index rises from 2.49 to 3.32.

Compared with H23S, H23M is lower in protein stability index: 4.04 for the first, 2.02 for the second.

Going from H23D to H23P, the protein stability index falls from 2.27 to 1.85.

Variant H23Q has a protein stability index of 4.44.

Variants of: B2
Assay: as above
Settings: c terminus: a fixed tail appended

First: L24M
Second: L24P
The protein stability index of the first is lower: 2.46 for the first, 2.9 for the second.

Going from L24S to L24N, the protein stability index rises from 2.95 to 2.97.

Compared with L24E, L24Y is lower in protein stability index: 2.96 for the first, 2.2 for the second.

Compared with K20G, K20A is lower in protein stability index: 2.85 for the first, 2.2 for the second.

Compared with K20H, T7N is higher in protein stability index: 1.88 for the first, 2.83 for the second.

Going from T7V to T7W, the protein stability index falls from 2 to 1.2.

First: T7Y
Second: T7E
The protein stability index of the first is lower: 2.61 for the first, 2.62 for the second.

Going from I11L to I11P, the protein stability index rises from 2.15 to 3.32.

First: I11S
Second: I11K
The protein stability index of the first is higher: 2.22 for the first, 1.93 for the second.

Going from P6L to P6I, the protein stability index rises from 2.04 to 2.07.

First: P6G
Second: P6W
The protein stability index of the first is lower: 1.96 for the first, 3.07 for the second.

Going from P6T to P6M, the protein stability index rises from 1.77 to 2.56.

Going from C19I to C19N, the protein stability index rises from 1.66 to 2.16.

Going from C19E to C19H, the protein stability index falls from 2.79 to 2.33.

Going from C19S to L14H, the protein stability index rises from 1.96 to 2.58.

First: L14A
Second: L14D
The protein stability index of the first is lower: 2.26 for the first, 3.04 for the second.

Going from L14G to S23A, the protein stability index falls from 2.56 to 2.4.

Compared with S23T, S23H is higher in protein stability index: 1.88 for the first, 2.02 for the second.

Going from S23N to S23Q, the protein stability index falls from 2.39 to 2.35.

First: T2Y
Second: T2L
The protein stability index of the first is higher: 3.35 for the first, 2.74 for the second.

First: T2R
Second: T2H
The protein stability index of the first is higher: 3.37 for the first, 2.2 for the second.

Compared with G3N, G3W is higher in protein stability index: 2.62 for the first, 2.66 for the second.

Going from G3I to G3F, the protein stability index falls from 2.77 to 1.97.

Going from G3A to S15W, the protein stability index falls from 2.88 to 2.39.

Going from S15Q to S15V, the protein stability index rises from 2.09 to 2.36.

Going from S15T to S15R, the protein stability index falls from 2.25 to 1.71.

Compared with Q5G, Q5D is higher in protein stability index: 2.15 for the first, 2.19 for the second.

First: Q5N
Second: Q5K
The protein stability index of the first is higher: 2.33 for the first, 2.06 for the second.

First: S4T
Second: S4K
The protein stability index of the first is higher: 2.69 for the first, 2.6 for the second.

Compared with S4R, S4V is higher in protein stability index: 1.62 for the first, 2.75 for the second.

Compared with Q13M, Q13A is higher in protein stability index: 2.03 for the first, 2.31 for the second.

Compared with L22A, L22V is lower in protein stability index: 2.85 for the first, 1.91 for the second.

Going from L22W to L22E, the protein stability index rises from 2.19 to 3.46.

Going from L22G to L22S, the protein stability index falls from 2.88 to 2.61.

First: L22R
Second: L22C
The protein stability index of the first is lower: 2.23 for the first, 2.27 for the second.

Going from L22H to R10P, the protein stability index rises from 2.29 to 2.7.

First: R10N
Second: R10C
The protein stability index of the first is higher: 2.6 for the first, 1.94 for the second.

Going from E9N to E9C, the protein stability index rises from 1.99 to 2.14.

Going from T12D to H18C, the protein stability index falls from 2.32 to 1.94.

First: H18K
Second: H18M
The protein stability index of the first is higher: 2.34 for the first, 2.24 for the second.

Going from H18Y to H18P, the protein stability index rises from 2.14 to 2.93.

Compared with H18L, H18R is higher in protein stability index: 2.46 for the first, 2.55 for the second.

Going from A8Y to A8C, the protein stability index falls from 2.27 to 2.09.

First: A8G
Second: A8V
The protein stability index of the first is higher: 2.95 for the first, 2.45 for the second.

Compared with A8N, A8E is higher in protein stability index: 2.09 for the first, 2.6 for the second.

Compared with F1I, F1Q is higher in protein stability index: 3.86 for the first, 4.31 for the second.

Compared with F1E, F1G is higher in protein stability index: 4.26 for the first, 4.34 for the second.

Going from A16F to A16N, the protein stability index rises from 2.33 to 2.58.

First: A16L
Second: A16P
The protein stability index of the first is lower: 2.17 for the first, 2.39 for the second.

Going from P17W to P17F, the protein stability index falls from 2.46 to 1.85.

First: P17Q
Second: K21G
The protein stability index of the first is higher: 2.48 for the first, 2.01 for the second.

Going from K21A to K21D, the protein stability index rises from 2.56 to 2.89.
